Laboratory results from the RNAGym collection of RNA variant scans (doi:10.7554/elife.80360).

B1: Hammerhead Ribozyme (parent)
chain: ACCGGAUGUGCUUUCCGGUCUGAUGAGUCCGUGAGGACGAAACAG

Variants of: B1
Experiment: self-cleavage, relative activity (ratio to wild type); higher = more cleavage; co-transcriptional

Row | Variant | self-cleavage
1 | ACCGGAUGUGCUUUCCGGUCUGAUGACUCCGUGAGUACGAAACAG [G27C G36U] | 0.371
2 | ACCGGAUGUGCUUUCCGGUCUGAUGAACCCGUGAGGACGAAACAG [G27A U28C] | 0.645
3 | ACCGGAUGUGCUUUCCGGUCUGAUGAAGCCGUGAGGACGAAACAG [G27A U28G] | 0.695
4 | ACCGGAUGUGCUUUCCGGUCUGAUGAAACCGUGAGGACGAAACAG [G27A U28A] | 0.643
5 | ACCGGAUGUGCUUUCCGGUCUGAUGACUCCGUGAGGGCGAAACAG [G27C A37G] | 0.677
6 | ACCGGAUGUGCUUUCCGGUCUGAUGACUCCGUGAGGCCGAAACAG [G27C A37C] | 0.491
7 | ACCGGAUGUGCUUUCCGGUCUGAUGACUCCGUGAGGUCGAAACAG [G27C A37U] | 0.479
8 | ACCGGAUGUGCUUUCCGGUCUGAUGACUCCGUGAGGAGGAAACAG [G27C C38G] | 0.426
9 | ACCGGAUGUGCUUUCCGGUCUGAUGACUCCGUGAGGAAGAAACAG [G27C C38A] | 0.863
10 | ACCGGAUGUGCUUUCCGGUCUGAUGACUCCGUGAGGAUGAAACAG [G27C C38U] | 0.792
11 | ACCGGAUGUGCUUUCCGGUCUGAUGAUUCCGUGAGGACGAGACAG [G27U A41G] | 0.312
12 | ACCGGAUGUGCUUUCCGGUCUGAUGAUUCCGUGAGGACGAUACAG [G27U A41U] | 0.347
13 | ACCGGAUGUGCUUUCCGGUCUGAUGAUUCCGUGAGGACGACACAG [G27U A41C] | 0.328
14 | ACCGGAUGUGCUUUCCGGUCUGAUGACUCCGUGAGGACGAAACCG [G27C A44C] | 0.38
15 | ACCGGAUGUGCUUUCCGGUCUGAUGACUCCGUGAGGACGAAACUG [G27C A44U] | 0.445
16 | ACCGGAUGUGCUUUCCGGUCUGAUGACUCCGUGAGGACGAAACGG [G27C A44G] | 0.988
17 | ACCGGAUGUGCUUUCCGGUCUGAUGAAUCCCUGAGGACGAAACAG [G27A G31C] | 0.864
18 | ACCGGAUGUGCUUUCCGGUCUGAUGAAUCCAUGAGGACGAAACAG [G27A G31A] | 0.61
19 | ACCGGAUGUGCUUUCCGGUCUGAUGAAUCCUUGAGGACGAAACAG [G27A G31U] | 0.923

Row | Variant | self-cleavage
20 | ACCGGAUGUGCUUUCCGGUCUGAUGACUCAGUGAGGACGAAACAG [G27C C30A] | 0.401
21 | ACCGGAUGUGCUUUCCGGUCUGAUGACUCGGUGAGGACGAAACAG [G27C C30G] | 0.459
22 | ACCGGAUGUGCUUUCCGGUCUGAUGACUCUGUGAGGACGAAACAG [G27C C30U] | 0.818
23 | ACCGGAUGUGCUUUCCGGUCUGAUGACUCCGUGAGGACGAAAAAG [G27C C43A] | 0.291
24 | ACCGGAUGUGCUUUCCGGUCUGAUGACUCCGUGAGGACGAAAGAG [G27C C43G] | 0.26
25 | ACCGGAUGUGCUUUCCGGUCUGAUGACUCCGUGAGGACGAAAUAG [G27C C43U] | 0.399
26 | ACCGGAUGUGCUUUCCGGUCUGAUGACACCGUGAGGACGAAACAG [G27C U28A] | 0.508
27 | ACCGGAUGUGCUUUCCGGUCUGAUGACCCCGUGAGGACGAAACAG [G27C U28C] | 0.431
28 | ACCGGAUGUGCUUUCCGGUCUGAUGACGCCGUGAGGACGAAACAG [G27C U28G] | 0.389
29 | ACCGGAUGUGCUUUCCGGUCUGAUGAUUCCGUGAGGCCGAAACAG [G27U A37C] | 0.308
30 | ACCGGAUGUGCUUUCCGGUCUGAUGAUUCCGUGAGGUCGAAACAG [G27U A37U] | 0.521
31 | ACCGGAUGUGCUUUCCGGUCUGAUGAUUCCGUGAGGGCGAAACAG [G27U A37G] | 0.501
32 | ACCGGAUGUGCUUUCCGGUCUGAUGAAUGCGUGAGGACGAAACAG [G27A C29G] | 0.412
33 | ACCGGAUGUGCUUUCCGGUCUGAUGAAUACGUGAGGACGAAACAG [G27A C29A] | 0.42
34 | ACCGGAUGUGCUUUCCGGUCUGAUGAAUUCGUGAGGACGAAACAG [G27A C29U] | 0.598
35 | ACCGGAUGUGCUUUCCGGUCUGAUGAUUCCGUGAGGACGAAACUG [G27U A44U] | 0.349
36 | ACCGGAUGUGCUUUCCGGUCUGAUGAUUCCGUGAGGACGAAACCG [G27U A44C] | 0.305
37 | ACCGGAUGUGCUUUCCGGUCUGAUGAUUCCGUGAGGACGAAACGG [G27U A44G] | 0.69
38 | ACCGGAUGUGCUUUCCGGUCUGAUGAAUCGGUGAGGACGAAACAG [G27A C30G] | 0.458

Row | Variant | self-cleavage
39 | ACCGGAUGUGCUUUCCGGUCUGAUGAAUCAGUGAGGACGAAACAG [G27A C30A] | 0.529
40 | ACCGGAUGUGCUUUCCGGUCUGAUGAAUCUGUGAGGACGAAACAG [G27A C30U] | 0.69
41 | ACCGGAUGUGCUUUCCGGUCUGAUGAAUCCGUGAGGAAGAAACAG [G27A C38A] | 0.871
42 | ACCGGAUGUGCUUUCCGGUCUGAUGAAUCCGUGAGGAGGAAACAG [G27A C38G] | 0.623
43 | ACCGGAUGUGCUUUCCGGUCUGAUGAAUCCGUGAGGAUGAAACAG [G27A C38U] | 0.965
44 | ACCGGAUGUGCUUUCCGGUCUGAUGACUCCGUGAGGACGAAACAG [G27C] | 0.843
45 | ACCGGAUGUGCUUUCCGGUCUGAUGAUUCCGUGAGGACGAAACAG [G27U] | 0.561
46 | ACCGGAUGUGCUUUCCGGUCUGAUGAUUCCGUGCGGACGAAACAG [G27U A34C] | 0.32
47 | ACCGGAUGUGCUUUCCGGUCUGAUGAUUCCGUGUGGACGAAACAG [G27U A34U] | 0.382
48 | ACCGGAUGUGCUUUCCGGUCUGAUGAUUCCGUGGGGACGAAACAG [G27U A34G] | 0.373
49 | ACCGGAUGUGCUUUCCGGUCUGAUGACUCCGAGAGGACGAAACAG [G27C U32A] | 0.716
50 | ACCGGAUGUGCUUUCCGGUCUGAUGACUCCGCGAGGACGAAACAG [G27C U32C] | 1.01
51 | ACCGGAUGUGCUUUCCGGUCUGAUGACUCCGGGAGGACGAAACAG [G27C U32G] | 0.705
52 | ACCGGAUGUGCUUUCCGGUCUGAUGACUCCGUGAAGACGAAACAG [G27C G35A] | 0.443
53 | ACCGGAUGUGCUUUCCGGUCUGAUGACUCCGUGAUGACGAAACAG [G27C G35U] | 0.402
54 | ACCGGAUGUGCUUUCCGGUCUGAUGACUCCGUGACGACGAAACAG [G27C G35C] | 0.394
55 | ACCGGAUGUGCUUUCCGGUCUGAUGAUUCCGUGAGGACGAACCAG [G27U A42C] | 0.294
56 | ACCGGAUGUGCUUUCCGGUCUGAUGAUUCCGUGAGGACGAAUCAG [G27U A42U] | 0.315
57 | ACCGGAUGUGCUUUCCGGUCUGAUGAUUCCGUGAGGACGAAGCAG [G27U A42G] | 0.261
